Data set [1] addresses SPOUT catalytic domain of TrmTS (lacks NFLD and THUMP domain, residues 2-151) (Thermococcus kodakarensis) (UniProt Q5JGM1). Briefly: SEC; Superdex 200 10/300, room temperature; 150 ug truncated TrmTS heated at 50°C for 10 min, run in buffer C (50 mM Tris-HCl pH 8.0, 500 mM KCl, 300 mM ammonium sulfate); size standards 29-150 kDa. (In gel filtration, larger molecules generally elute earlier.)

In data set [2] the target is T1, TrmTS (TK1257 gene product) (Thermococcus kodakarensis KUW1, UniProt Q5JGM1 1-355).
T1 sequence: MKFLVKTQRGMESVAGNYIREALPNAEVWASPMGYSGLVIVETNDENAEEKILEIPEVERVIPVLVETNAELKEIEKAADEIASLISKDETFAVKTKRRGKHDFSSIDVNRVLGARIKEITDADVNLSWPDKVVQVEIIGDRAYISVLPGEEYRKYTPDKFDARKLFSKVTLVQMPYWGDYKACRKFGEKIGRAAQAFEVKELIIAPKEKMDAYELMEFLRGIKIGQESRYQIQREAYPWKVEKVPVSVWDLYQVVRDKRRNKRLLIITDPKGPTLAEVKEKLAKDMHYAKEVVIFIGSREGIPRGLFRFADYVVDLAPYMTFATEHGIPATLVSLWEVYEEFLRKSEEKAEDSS
Briefly: competition (inhibition of methylation of wild-type tRNA-Trp transcript); SAM; competitor against wild-type tRNA-Trp transcript; Inhibition assay conditions (buffer, salt, pH, temperature) not given in the material. The settings on record: protein: recombinant; tags: none (untagged; native start and stop codons in pET30a); chain copies: 2; tRNA cloverleaf.

Data set [3] concerns the molecule itself. Nature of the data set: SEC; Superdex 200 10/300, room temperature; 200 ug full-length TrmTS heated at 75°C for 10 min, then run in buffer SEC (50 mM sodium phosphate pH 8.0, 500 mM KCl, 6 mM 2-mercaptoethanol, 5% glycerol); sample buffer also held 0.1% Triton X-100; size standards 29-150 kDa.
Substrate in data set [4]: C[S+](CC[C@H](N)C(=O)O)C[C@H]1O[C@@H](n2cnc3c(N)ncnc32)[C@H](O)[C@@H]1O
Briefly: purified protein. The settings on record: 35 μM T. kodakarensis tRNA-Trp transcript, 3 μM enzyme (not fully steady-state), 5 mM MgCl2, 300 mM KCl, pH 7.6, 75°C, mixture of unlabelled and 3H-labelled compound :1.

The source of these data is PMC12255305, “A transfer RNA methyltransferase with an unusual domain composition catalyzes 2′-O-methylation at position 6 in tRNA” (Nucleic Acids Research, 2025).

As to “SPOUT catalytic domain of TrmTS (lacks NFLD and THUMP domain, residues 2-151) (from UniProt Q5JGM1 152-355) (domain or fragment)”, in data set [1], the stoichiometry N (commonly a count of units in the complex or per binding partner) is 2.

B1: tRNA-Trp C6G-G67C transcript (G6-C67) (structured_RNA)
RNA: GGGGGGGUGGUGUAGCCUGGUCCAUCAUCGCGGGCUCCAGACCCGCGGACCGGGGUUCAAAUCCCCGCCCCCCCACCA
For the molecule B1, the IC50 (usually the midpoint of a concentration-inhibition curve) in data set [2] was around 30 µM.

B2: TrmTS (TK1257 gene product), full-length wild type (enzyme, Thermococcus kodakarensis, UniProt Q5JGM1 1-355, looked up)
chain: MKFLVKTQRGMESVAGNYIREALPNAEVWASPMGYSGLVIVETNDENAEEKILEIPEVERVIPVLVETNAELKEIEKAADEIASLISKDETFAVKTKRRGKHDFSSIDVNRVLGARIKEITDADVNLSWPDKVVQVEIIGDRAYISVLPGEEYRKYTPDKFDARKLFSKVTLVQMPYWGDYKACRKFGEKIGRAAQAFEVKELIIAPKEKMDAYELMEFLRGIKIGQESRYQIQREAYPWKVEKVPVSVWDLYQVVRDKRRNKRLLIITDPKGPTLAEVKEKLAKDMHYAKEVVIFIGSREGIPRGLFRFADYVVDLAPYMTFATEHGIPATLVSLWEVYEEFLRKSEEKAEDSS
notes: TK1257 gene product (TrmTS), tRNA 2'-O-methyltransferase of Thermococcus kodakarensis strain KUW1, 355 amino acids; NFLD, THUMP, linker and SPOUT domains; gene amplified from the ATG to the stop codons; Cloned between NdeI and BamHI of pET30a with its own stop codons; also called full-length TrmTS; wild-type TrmTS; source: E. coli BL21 (DE3) Rosetta 2, purified (75°C heat step, HiTrap Q HP, …)
Take B2: the “stoichiometry N” value in data set [3] amounted to 4. Besides, the Michaelis constant (Km) – broadly, the substrate concentration at which the rate is half of its maximum – in data set [4] was found to be 23 µM.

B3: TrmTS (TK1257 gene product) (Thermococcus kodakarensis KOD1; E301A) (protein)
chain: MKFLVKTQRGMESVAGNYIREALPNAEVWASPMGYSGLVIVETNDENAEEKILEIPEVERVIPVLVETNAELKEIEKAADEIASLISKDETFAVKTKRRGKHDFSSIDVNRVLGARIKEITDADVNLSWPDKVVQVEIIGDRAYISVLPGEEYRKYTPDKFDARKLFSKVTLVQMPYWGDYKACRKFGEKIGRAAQAFEVKELIIAPKEKMDAYELMEFLRGIKIGQESRYQIQREAYPWKVEKVPVSVWDLYQVVRDKRRNKRLLIITDPKGPTLAEVKEKLAKDMHYAKEVVIFIGSRAGIPRGLFRFADYVVDLAPYMTFATEHGIPATLVSLWEVYEEFLRKSEEKAEDSS
Turning to B3, the Km in data set [4] came out at 21 ± 5.1 µM.

B4: TrmTS (TK1257 gene product) (Thermococcus kodakarensis KOD1; K155A) (protein)
chain: MKFLVKTQRGMESVAGNYIREALPNAEVWASPMGYSGLVIVETNDENAEEKILEIPEVERVIPVLVETNAELKEIEKAADEIASLISKDETFAVKTKRRGKHDFSSIDVNRVLGARIKEITDADVNLSWPDKVVQVEIIGDRAYISVLPGEEYRAYTPDKFDARKLFSKVTLVQMPYWGDYKACRKFGEKIGRAAQAFEVKELIIAPKEKMDAYELMEFLRGIKIGQESRYQIQREAYPWKVEKVPVSVWDLYQVVRDKRRNKRLLIITDPKGPTLAEVKEKLAKDMHYAKEVVIFIGSREGIPRGLFRFADYVVDLAPYMTFATEHGIPATLVSLWEVYEEFLRKSEEKAEDSS
As to B4, in data set [4], the Km stood at 44 ± 7.6 µM.
